Laboratory results as given in US20170298146A1 (MODIQUEST B V, published 2017).
Non-standard residues stand in square brackets, D forms with d. No end group written: not given here. Cit = NC(=O)NCCC[C@H](N)C(=O)O

Tests used:
msFibβ XG [1] = target: T1, msFibβ XG (mouse, also: biotin label); test: peptide ELISA, 10 ug/well
T1 peptide: EPTDSLDA[Cit]GHRPVDRR
Method: (§1) Biotin and citrulline-containing peptides derived from fibrinogen and vimentin were immobilized on NEUTRAVIDIN®-coated 96-well ELISA plates (0.3 μg/well). CFC-1 and CFC-0 were coated at the same concentration and served as positive and negative controls respectively for specific anti-citrulline reactivity and as coating controls. Non-coated wells were used to test for aspecific binding of the antibodies. […] Detection of bound anti-citrulline antibodies was performed by incubating the wells with rabbit-anti-human-HRP (1:2000) for one hour at RT followed by incubation with TMB substrate. The resulting OD (y-axis) is a measure for antibody binding.
(§2) Biotin-labeled and citrulline-containing fibrinogen and vimentin peptides (Table 5) were also tested for reactivity with the therapeutic antibodies. Peptides were coated on 96-well NEUTRAVIDIN®-ELISA plates.

msFibα XH [2] = target: T2, msFibα XH (mouse, X at position 15 is citrulline; biotin label); test: peptide ELISA, 10 ug/well
T2 peptide: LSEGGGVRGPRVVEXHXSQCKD
Method: as §1, §2

msVim XS/XL [3] = target: T3, msVim XS/XL (mouse, also: biotin label); test: peptide ELISA, 10 ug/well
T3 construct: also called mouse vimentin peptide
T3 peptide: YVT[Cit]SSAV[Cit]L[Cit]SSVP
Method: as §1, §2

huFibα XG [4] = target: T4, huFibα XG (human, X at position 8 is citrulline; biotin label); test: peptide ELISA, 10 ug/well
T4 peptide: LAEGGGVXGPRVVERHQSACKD
Method: as §1, §2

huFibα XH [5] = target: T5, huFibα XH (human, X at position 15 is citrulline; biotin label); test: peptide ELISA, 10 ug/well
T5 peptide: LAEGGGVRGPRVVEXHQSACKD
Method: as §1, §2

msFibα XG [6] = target: T6, msFibα XG (mouse, X at position 8 is citrulline; biotin label); test: peptide ELISA, 10 ug/well
T6 peptide: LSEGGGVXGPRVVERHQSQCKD
Method: as §1, §2

CFC-1 [7] = target: T7, CFC-1; test: peptide ELISA, 10 ug/well
T7 construct: Positive control for anti-citrulline reactivity; also called cfc1 XG
Method: as §1, §2

msFibβ XG [8] = target: T1, msFibβ XG; test: peptide ELISA, 0.08 ug/well
Method: as §1, §2

msFibα XH [9] = target: T2, msFibα XH; test: peptide ELISA, 0.08 ug/well
Method: as §1, §2

msVim XS/XL [10] = target: T3, msVim XS/XL; test: peptide ELISA, 0.08 ug/well
Method: as §1, §2

huFibα XG [11] = target: T4, huFibα XG; test: peptide ELISA, 0.08 ug/well
Method: as §1, §2

huFibα XH [12] = target: T5, huFibα XH; test: peptide ELISA, 0.08 ug/well
Method: as §1, §2

msFibα XG [13] = target: T6, msFibα XG; test: peptide ELISA, 0.08 ug/well
Method: as §1, §2

CFC-1 [14] = target: T7, CFC-1; test: peptide ELISA, 0.08 ug/well
Method: as §1, §2

[15] = target: T8, huPAD2 deiminated human recombinant histone H3 (human); test: ELISA, 0.08 ug/well
T8 construct: also called H3/p2
Method: (§3) CFC-1 and CFC-0 were coated at the same concentration and served as positive and negative controls, respectively, for specific anti-citrulline reactivity and as coating controls. Non-coated wells were used to test for aspecific binding of the antibodies. […] Detection of bound anti-citrulline antibodies was performed by incubating the wells with rabbit-anti-human-HRP (1:2000) for one hour at RT followed by incubation with TMB substrate. The resulting OD (y-axis) is a measure for antibody binding. H1=recombinant histone 1; H1/p2=huPAD2 recombinant histone 1; H1/p4=huPAD4 recombinant histone 1 and so forth (x-axis).

[16] = target: T9, huPAD4 deiminated human recombinant histone H2B (human); test: ELISA, 0.08 ug/well
T9 construct: also called H2B/p4
Method: as §3

[17] = target: T10, huPAD4 deiminated human recombinant histone H2A (human); test: ELISA, 0.08 ug/well
T10 construct: also called H2A/p4; huPAD4 deiminated histone 2A
Method: as §3

[18] = target: T11, human recombinant histone H2B (human); test: ELISA, 0.08 ug/well
T11 construct: Non-deiminated
Method: as §3

[19] = target: T12, human recombinant histone H2A (human); test: ELISA, 0.08 ug/well
T12 construct: Non-deiminated
Method: as §3

[20] = target: T13, huPAD4 deiminated human recombinant histone H3 (human); test: ELISA, 0.08 ug/well
T13 construct: also called H3/p4
Method: as §3

[21] = target: T14, huPAD2 deiminated human recombinant histone H2A (human); test: ELISA, 0.08 ug/well
T14 construct: also called H2A/p2
Method: as §3

[22] = target: human recombinant histone H4 (human, UniProt P62805 2-103); test: ELISA, 0.08 ug/well
Method: as §3

CFC-1 [23] = target: T7, CFC-1; test: ELISA, 0.08 ug/well
Method: as §3

[24] = target: T15, huPAD2 deiminated human recombinant histone H2B (human); test: ELISA, 0.08 ug/well
T15 construct: also called H2B/p2
Method: as §3

B1: RhmAb2.102 (antibody, human IgG1, lambda)
heavy: not shown
light: QSVLTQPPSMSAAPGQKVTISCSGSSSNIGNNYVSWYQQVPGTAPKLLIYDDNKRPSGIPGRFSGSKSATSATLGITGLQAGDEADYYCGSWDDNLSVVLFGGGTKLTVLGQPKAAPSVTLFPPSSEELQANKATLVCLISDFYPGAVTVAWKADSSPVKAGVETTTPSKQSNNKYAASSYLSLTPEQWKSHRSYSCQVTHEGSTVEKTVAPTECS
notes: Human IgG1 lambda; also called Rhm2.102
B1 showed an OD (msFibβ XG [1]) of 3.8 OD, an OD (msFibα XH [2]) of 0.154 OD and an OD (msVim XS/XL [3]) of 3.69 OD. The OD (huFibα XG [4]) was 2.73 OD, the OD (huFibα XH [5]) was 0.179 OD and the OD (msFibα XG [6]) was 3.03 OD. It also gave an OD (CFC-1 [7]) of 3.89 OD, an OD (msFibβ XG [8]) of 0.515 OD and an OD (msFibα XH [9]) of 0.076 OD. It also gave an OD (msVim XS/XL [10]) of 0.515 OD, an OD (huFibα XG [11]) of 0.186 OD and an OD (huFibα XH [12]) of 0.08 OD. It also gave an OD (msFibα XG [13]) of 0.237 OD, an OD (CFC-1 [14]) of 3.03 OD and an OD [15] of 0.493 OD. It also gave an OD [16] of 0.052 OD, an OD [17] of 1.75 OD and an OD [18] of 0.054 OD. For the same binder, the OD [19] was 0.06 OD, the OD [20] was 0.093 OD and the OD [21] was 1.96 OD. It also gave an OD [22] of 0.067 OD, an OD (CFC-1 [23]) of 2.15 OD and an OD [24] of 0.053 OD.
